Reference: US20180112001A1 (Regeneron, published 2018)
Changes are numbered by the printed parent chain. In names and notes the source's numbering stands. Like-named read-outs stand apart in the source and are kept apart here.

T1: soluble monomeric human MUC16, truncated format encompassing the last five SEA domains of Mucin-16 (human)
T1 construct: also called hMUC16.mmh; MUC16 "nub"
T1 chain: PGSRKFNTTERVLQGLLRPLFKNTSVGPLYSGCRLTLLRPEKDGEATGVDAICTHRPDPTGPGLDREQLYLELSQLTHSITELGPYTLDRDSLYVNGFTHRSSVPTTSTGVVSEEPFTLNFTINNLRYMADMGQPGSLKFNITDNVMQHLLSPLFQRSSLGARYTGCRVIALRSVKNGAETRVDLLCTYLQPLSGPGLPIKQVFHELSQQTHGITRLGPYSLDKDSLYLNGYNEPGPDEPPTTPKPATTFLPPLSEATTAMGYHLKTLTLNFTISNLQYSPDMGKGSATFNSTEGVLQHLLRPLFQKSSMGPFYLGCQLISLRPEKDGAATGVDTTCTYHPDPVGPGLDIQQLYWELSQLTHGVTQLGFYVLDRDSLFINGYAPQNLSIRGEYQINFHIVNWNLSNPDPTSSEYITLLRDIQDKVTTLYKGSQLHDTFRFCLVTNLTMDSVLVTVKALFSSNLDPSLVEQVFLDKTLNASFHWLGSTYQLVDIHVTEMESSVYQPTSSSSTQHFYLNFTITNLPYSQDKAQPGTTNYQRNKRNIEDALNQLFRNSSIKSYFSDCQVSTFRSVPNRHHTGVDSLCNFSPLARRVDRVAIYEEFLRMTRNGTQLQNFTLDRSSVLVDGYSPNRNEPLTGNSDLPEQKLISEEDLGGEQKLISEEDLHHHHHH

B1: H1M7137N (antibody, mouse IgG1, V domains shown)
VH: QVQLQESGPGLVKPSETLSLTCTVSGGAINTYYWSWIRQPPGKGLEWIGYIYYRGNTNYNPSLRSRVTISVDTSKNQFFLKLRSVTVADSAVYFCARGWNYRAEYFQHWGQGTVVTVSS
VL: not shown
notes: Mouse IgG1 constant region (H1M)
B2: H1H8790P (antibody, human IgG1, V domains shown)
VH: EVQLVESGGGLVQPGGSLRLSCEASGFTFSNYAMSWVRQAPGKGLEWVSGMSGSGTYPYYADSVKGRFTISRDNSKNMLYLQMNSLRVKDTAVYYCAKDGVDTAMILDTFDLWGQGTMVTVSS
VL: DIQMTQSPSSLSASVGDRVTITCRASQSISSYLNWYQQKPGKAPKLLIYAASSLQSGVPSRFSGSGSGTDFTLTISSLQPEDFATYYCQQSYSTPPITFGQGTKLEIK
notes: Human IgG1 (H1H)
B3: H1H8755P (antibody, human IgG1, V domains shown)
VH: EVQLVESGGGLVQPGRSLRLSCAASGFTFNDYAMHWVRQSPGKGLEWVSGIDWNGGSIDYADSVKGRFTISRDTAKNSLYLQMNSLKVEDTALYYCAKDIGHWNYIGGMDVWGQGTTVTVSS
VL: DIQMTQSPSSLSASVGDRVTITCRASQSINIYLNWYQQKPGKAPKFLIYAASSLQTGVPSRFSGSGSGTDFTLTISSLEPEDFATYYCQHSYSTPPITFGQGTRLEIK
notes: Human IgG1 (H1H)
B4: H1H8794P (antibody, V domains shown)
VH: QVQLVESGGGLVKPGGSLRLSCAASGFTFRDYSMSWIRQAPGKGLEWVSYVTFFNSAIYYADSVKGRFTISRDNAKNSLYLQMNSLRAEDTAVYYCAREREPIVGGFDYWGQGTLVTVSS
VL: B3 VL with I31S, F46L, T56G, S65G, S76T, E79Q, Y86F, H90Q, T94S
notes: Human IgG1 (H1H)
B5: H2M7135N (antibody, mouse IgG2, V domains shown)
VH: EVQLVESGGGLVQAGGSLRLSCAASGFTFSYHEMNWVRQAPGKGLEWVSYIGSRGTTKHYADPVKGRFTISRDNAKNSLYLQMNSLRAEDTAVYYCASEVGSILGYSMDVWGQGTTVTVSS
VL: DIQMTQSPSSLSASVGDRVTITCRASQSVSRYLNWCQQKPGKAPKLLTYAASSLQSGVPSRFSGSGSGTDFTLTISSLQPEDFAAYFCQQSYSTPPITFGQGTRLEIK
notes: Mouse IgG2 constant region (H2M)
B6: H1H8770P (antibody, human IgG1, V domains shown)
VH: QVQLVESGGGVVQPGRSLRLSCAASGFTFSDHGMHWVRQAPGKGLEWVAVISYHGSNKHYADSVKGRFTISRDNSKNALYLQMNSLRPEDTAMYYCAKDGYDFWNGYSLFDYWGQGTLVTVSS
VL: B3 VL with N30S, I31N, F46L, A50T, S53N, Q55L, T56S, E79Q, H90Q, R104K
notes: Human IgG1 (H1H)
B7: H1H8783P (antibody, human IgG1, V domains shown)
VH: B6 VH with G33A, S56T, N57D, H59Q, A61G, G106A
VL: B3 VL with N30S, I31N, F46L, A50T, Q55L, T56S, E79Q, H90Q
notes: Human IgG1 (H1H)
B8: H2M9538N (antibody, V domains shown)
VH: QVQLQESGPGLVKPSETLSLTCTVSGGSISSYYWSWIRQPPGKGLEWIGYIYYSGSTNYNPSLKSRVTISVDTSKNQFSLKLSSVTAADTAVYYCARKKLVFDYWGQGTLVTVSS
VL: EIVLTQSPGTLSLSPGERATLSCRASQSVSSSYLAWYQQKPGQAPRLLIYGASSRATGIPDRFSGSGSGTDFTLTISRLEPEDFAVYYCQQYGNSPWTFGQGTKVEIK
B9: H1H9538N (antibody, V domains shown)
VH: B8 VH
VL: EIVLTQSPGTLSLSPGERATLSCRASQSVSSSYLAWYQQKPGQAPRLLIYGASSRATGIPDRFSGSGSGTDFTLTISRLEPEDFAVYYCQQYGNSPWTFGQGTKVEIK
B10: H1M9528N (antibody, mouse IgG1, V domains shown)
VH: QMQLQESGPGLVKPSETLSLTCTVSGGSISSYYWNWIRQPPGKGLEWIGYIYYSGNNFNPSLKSRVTISVDTSKNQFSLKLSSVTAADTAVYYCARAFHWNYEFDYWGQGTLVTVSS
VL: EIVLTQSPGTLSLSPGERATLSCRASQSVSNNYLAWYQQKPGQAPRLLLYGASSRTTDIPDRFSGSGSGTDFTLTISRLEPEDFAVYYCQQYDNSPLTFGGGTKVEIR
notes: as for B1
B11: H1H9528N (antibody, human IgG1, V domains shown)
VH: B10 VH
VL: B10 VL
notes: Human IgG1 Fc version
B12: H3M9524N (antibody, mouse IgG3, V domains shown)
VH: QVQLQQWGAGLLKPSETLSLTCAVYGGSFSDYYWSWIRQPPGKGLEWIGEINHRGKTNYNPSLKSRVSISVDPSKNQFSLKLSSVTAADTAVYYCARQGWNYAIFDYWGQGILVPVSS
VL: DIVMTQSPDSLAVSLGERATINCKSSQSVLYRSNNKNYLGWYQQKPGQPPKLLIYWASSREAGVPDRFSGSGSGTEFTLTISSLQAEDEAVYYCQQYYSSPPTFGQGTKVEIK
notes: Mouse IgG3 constant region (H3M)
B13: H1H9525N (antibody, human IgG1, V domains shown)
VH: B12 VH with D31G, R54S, N58T, N60S, S68T, P73T, N76S, W100L, I112T, P115T
VL: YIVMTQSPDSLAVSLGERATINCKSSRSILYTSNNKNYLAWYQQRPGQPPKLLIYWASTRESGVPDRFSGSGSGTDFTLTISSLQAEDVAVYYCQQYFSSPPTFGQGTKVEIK
notes: Human IgG1 Fc version
B14: H3M9525N (antibody, mouse IgG3, V domains shown)
VH: B12 VH with D31G, R54S, N58T, N60S, S68T, P73T, N76S, W100L, I112T, P115T
VL: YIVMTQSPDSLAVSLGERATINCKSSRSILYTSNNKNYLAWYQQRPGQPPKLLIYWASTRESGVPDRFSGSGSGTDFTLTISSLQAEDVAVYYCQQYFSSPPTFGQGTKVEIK
notes: as for B12
B15: H1H9524N (antibody, human IgG1, V domains shown)
VH: B12 VH
VL: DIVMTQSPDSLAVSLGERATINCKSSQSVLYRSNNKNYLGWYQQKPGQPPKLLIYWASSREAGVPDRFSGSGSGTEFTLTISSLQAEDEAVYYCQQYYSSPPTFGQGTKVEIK
notes: Human IgG1 Fc version
B16: H3M9529N (antibody, mouse IgG3, V domains shown)
VH: QVQLQQWGAGLLKPSETLSLTCAVYGGSFSGFYWSWIRQPPGKGLEWIGEINHSGSAKYNPSLKNRVIISIDTSKNQFSLKLDSVTAADTAVYNCARQGWNFAIFDYWGQGTLVDVSS
VL: DIVMTQSPDSLAVSLGGRATINCKSSQSVLHSSYNKDHLAWYQQRPGQPPKLLIYWASTRESGVPDRFSGSGSGTDFTLTISSLQAEDVAVYYCQQYNILPPTFGQGTRVEIK
notes: as for B12
B17: H1H9529N (antibody, human IgG1, V domains shown)
VH: B16 VH
VL: B16 VL
notes: Human IgG1 Fc version

Assays:
[1] = molecular target: T2, human MUC16 (mucin 16), endogenously expressed on cells (human); assay: MSD electrochemiluminescence cell binding; RLU ratio OVCAR-3/SK-OV-3; Ab 16.7 nM
T2 construct: Endogenous MUC16 on OVCAR-3 / OVCAR3-Luc / PEO-1 / HPAC cells; also called hMUC16

[2] = molecular target: T2, human MUC16 (mucin 16), endogenously …; assay: MSD electrochemiluminescence cell binding; RLU ratio OVCAR-3/SK-OV-3; Ab 1.9 nM
[3] = molecular target: T1, soluble monomeric human MUC16, …; assay: SPR Biacore, antibody captured, soluble monomeric hMUC16.mmh injected, 25C
[4] = molecular target: T1, soluble monomeric human MUC16, …; assay: as above

Row | Binder | Ratio: anti-MUC16 Binding OVCAR-3/SK-OV-3 [1] | Ratio: anti-MUC16 Binding OVCAR-3/SK-OV-3 [2] | Kd [3] | koff [3] | kon [3] | t ½ [3] | Kd [4] | koff [4] | kon [4] | t1/2 [4] | binding result [3]
1 | B1 | 29 ratio | 77 ratio | 1.72 nM | 9.09e-05 s⁻¹ | 53000 M⁻¹ s⁻¹ | 127 min |  |  |  |  | 
2 | B2 | 3 ratio | 8 ratio |  |  |  |  | 7.53 nM | 0.000761 s⁻¹ | 101000 M⁻¹ s⁻¹ | 15 min | 
3 | B3 | 5 ratio | 13 ratio |  |  |  |  | 0.286 nM | 0.000149 s⁻¹ | 522000 M⁻¹ s⁻¹ | 77 min | 
4 | B4 | 3 ratio | 8 ratio |  |  |  |  | 0.771 nM | 0.000279 s⁻¹ | 362000 M⁻¹ s⁻¹ | 41 min | 
5 | B5 | 5 ratio | 30 ratio | 4.27 nM | 0.000218 s⁻¹ | 51000 M⁻¹ s⁻¹ | 53 min |  |  |  |  | 
6 | B6 | 3 ratio | 9 ratio |  |  |  |  | 1.25 nM | 0.000308 s⁻¹ | 247000 M⁻¹ s⁻¹ | 38 min | 
7 | B7 | 4 ratio | 11 ratio |  |  |  |  | 0.614 nM | 0.000107 s⁻¹ | 174000 M⁻¹ s⁻¹ | 108 min | 
8 | B8 | 26 ratio | 89 ratio |  |  |  |  |  |  |  |  | 
9 | B9 | 13 ratio | 12 ratio |  |  |  |  |  |  |  |  | 
10 | B10 | 120 ratio | 153 ratio |  |  |  |  |  |  |  |  | no binding
11 | B11 | 18 ratio | 41 ratio |  |  |  |  |  |  |  |  | 
12 | B12 | 57 ratio | 81 ratio |  |  |  |  |  |  |  |  | no binding
13 | B13 | 21 ratio | 4 ratio |  |  |  |  |  |  |  |  | 
14 | B14 | 51 ratio | 137 ratio |  |  |  |  |  |  |  |  | no binding
15 | B15 | 48 ratio | 20 ratio |  |  |  |  |  |  |  |  | 
16 | B16 | 99 ratio | 143 ratio |  |  |  |  |  |  |  |  | no binding
17 | B17 | 74 ratio | 109 ratio |  |  |  |  |  |  |  |  | 
